Experimental findings from PMC9154775 are described below.

This test concerns the target hC3nb1-K57-ScFc (llama | bovine). Nature of the test: SPR. Background: Surface plasmon resonance follows binding to a sensor surface in real time, without labels.

In the case of human Complement C3 (natural protein), the Kd (as a rule, the concentration at which binding is half-saturated) came to 3.7 nM.
